# T1: variant nuclease E736G combination (P14R, D32R, I61R, E311R, E736G)
# T1 chain: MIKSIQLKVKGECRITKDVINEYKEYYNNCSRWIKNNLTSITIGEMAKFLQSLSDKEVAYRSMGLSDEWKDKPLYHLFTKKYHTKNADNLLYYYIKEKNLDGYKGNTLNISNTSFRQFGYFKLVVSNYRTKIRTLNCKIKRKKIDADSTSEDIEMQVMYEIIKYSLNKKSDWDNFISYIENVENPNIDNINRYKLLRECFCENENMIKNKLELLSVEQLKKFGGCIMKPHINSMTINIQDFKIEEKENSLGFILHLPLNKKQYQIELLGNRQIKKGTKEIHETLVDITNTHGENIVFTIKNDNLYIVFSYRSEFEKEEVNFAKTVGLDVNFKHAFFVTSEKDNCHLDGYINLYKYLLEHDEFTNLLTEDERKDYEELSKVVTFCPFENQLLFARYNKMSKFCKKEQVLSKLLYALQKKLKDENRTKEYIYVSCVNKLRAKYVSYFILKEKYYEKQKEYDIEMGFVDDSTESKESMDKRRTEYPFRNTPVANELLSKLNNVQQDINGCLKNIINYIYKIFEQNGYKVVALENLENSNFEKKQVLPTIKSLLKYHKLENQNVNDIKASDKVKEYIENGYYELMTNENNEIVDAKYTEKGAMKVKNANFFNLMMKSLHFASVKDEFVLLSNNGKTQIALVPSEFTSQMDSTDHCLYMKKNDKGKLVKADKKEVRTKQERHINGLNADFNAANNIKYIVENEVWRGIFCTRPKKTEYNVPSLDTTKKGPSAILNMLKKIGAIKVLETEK
# B1: AAVS1 crRNA ; AAVS1 target (ssRNA ; dsDNA)
# RNA: CUUGUUGUAUAUGUCCUUUUAUAGGUAUUAAACAACUGAGAAUGGUGCGUCCUAGG
# DNA 1: TGAGAATGGTGCGTCCTAGG
# DNA 2: CCTAGGACGCACCATTCTCA
# Biological target: T1, variant nuclease E736G combination
# Assay: cell_activity; PAM 5'-TTTG-3'
# Settings: tags: pcDNA3.1 expression
# In short: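 HEK293T cells were lipofected with nuclease plasmid (pcDNA3.1 backbone) plus RNA guide plasmid, with guide omitted in negative controls. After ~72 h cells were lysed in QuickExtract and % indels were derived from NGS reads, averaged over two bioreplicates and two technical replicates.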
binder,measurement,value
B1,indel activity,5.28 fold of WT
